Test results from US20160367515A1, “Improved delivery of poorly water soluble drugs with aphafetoprotein stabilized with metal ions” (Oy Safemed Ltd., priority 2013, published 2016).

B1: Zn-rhAFP: complex of rhAFP with Zn ions, prepared with 4-fold molar excess of ZnCl2 followed by dialysis (protein, UniProt P02771 19-609, looked up)
Alpha-fetoprotein: RTLHRNEYGIASILDSYQCTAEISLADLATIFFAQFVQEATYKEVSKMVKDALTAIEKPTGDEQSSGCLENQLPAFLEELCHEKEILEKYGHSDCCSQSEEGRHNCFLAHKKPTPASIPLFQVPEPVTSCEAYEEDRETFMNKFIYEIARRHPFLYAPTILLWAARYDKIIPSCCKAENAVECFQTKAATVTKELRESSLLNQHACAVMKNFGTRTFQAITVTKLSQKFTKVNFTEIQKLVLDVAHVHEHCCRGDVLDCLQDGEKIMSYICSQQDTLSNKITECCKLTTLERGQCIIHAENDEKPEGLSPNLNRFLGDRDFNQFSSGEKNIFLASFVHEYSRRHPQLAVSVILRVAKGYQELLEKCFQTENPLECQDKGEEELQKYIQESQALAKRSCGLFQKLGEYYLQNAFLVAYTKKAPQLTSSELMAITRKMAATAATCCQLSEDKLLACGEGAADIIIGHLCIRHEMTPVNPGVGQCCTSSYANRRPCFSSLVVDETYVPPAFSDDKFIFHKDLCQAQGVALQTMKQEFLINLVKQKPQITEEQLEAVIADFSGLLEKCCQGQEQEVCFAEEGQKLISKTRAALGV
modifications: zinc ion complex
B2: eAFP: fetal serum human AFP isolated from human cord serum (protein, UniProt P02771 19-609, looked up)
Alpha-fetoprotein: B1 Alpha-fetoprotein
B3: rhAFP: glycosylated wild-type recombinant human alpha-fetoprotein secreted by yeast Saccharomyces cerevisiae (protein, UniProt P02771 19-609, looked up)
Alpha-fetoprotein: B1 Alpha-fetoprotein
modifications: expressed in yeast
notes: glycosylated wild-type recombinant human alpha-fetoprotein secreted by yeast Saccharomyces cerevisiae

system: mammary carcinoma cell line MCF-7; assay: MTS cell viability assay, mammary carcinoma MCF-7 cells; assay type: cell-based, human; conditions: Example 3, MCF-7, 48 h, protein without drug, read-out: IC50, tumor suppressive effect of AFP species standalone
Method: Effect of binding of Zn ions to rhAFP and sugar-free rhAFPo species was tested by measuring of their dose-dependent tumor-suppressive effect for mammary carcinoma cell line MCF-7 in vitro, as it was earlier described for natural embryonic eAFP (Dudich et al., Eur. J. Biochem. 1999; 266: 750-761). MCF-7 cells were incubated with various doses of rhAFP (rhAFPo), Zn-rhAFP (Zn-rhAFPo) or with natural embryonic eAFP for 48 h, and thereafter their viability was assessed by the colorimetric MTS assay (FIG. 1A).
Cell viability was assessed by the Promega CellTiter 96 AQueous Non-Radioactive Cell Proliferation MTS assay (Promega, USA) according to manufacturer's instructions. Cells were incubated with various AFP samples for 48 h as described above, followed by incubation with MTS-test reagents and measuring of the light adsorption of the formasan, appeared in the lysed cell supernatants at 492 nm by using VICTOR-1420 multilabel counter (Wallac, Finland). Intact cell cultures incubated without additions were taken as a control. By such a way the quantity of viable cells capable to internalize MTS dye was determined. Results were expressed as the mean optical density (OD)±the standard error of the mean triplicate cultures. The extent of cell viability was calculated as an average OD in experimental wells after addition of testing compounds in relation to untreated control wells, that was taken as 100%
To evaluate the efficacy of preparations rhAFP/Ptx and Zn-rhAFP/Ptx we compared the cytotoxic effect of Ptx alone or that in combination with rhAFP or Zn-rhAFP for taxol-resistant human hepatoma HepG2 cells, human breast carcinoma cells MCF-7, and rat glioma C6 cell lines in vitro. RhAFP or Zn-rhAFP were incubated with various doses of Ptx at 37° C. for 1 h to allow complex formation with molecular ratios rhAFP:Ptx 1:1; 1:3 or 1:5 and thereafter the mixtures were introduced into the cell culture for 48 hrs. Cytotoxicity was measured by MTS assay.
Various doses of rhAFP/Ptx complexes were tested for their effectiveness for inhibition of human mammary carcinoma MCF-7, human hepatoma HepG2, and rat glioma C6 tumor cell growth in vitro. First, we optimized drug concentration and rhAFP amount to the extent that it would not generate an extensive cytotoxic effect alone. Then, the cells were seeded in 96-well plates at a density of 3×10^3/well in 100 μl of medium for 24 hrs to allow adherence. The next day, rhAFP or Zn-rhAFP combined with Ptx at the molecular ratios of 1:1; 1:3 or 1:5 were added into the each well. After 48 h of incubation MTS assays were performed to determine survival rate of the cells. All the experiments were repeated at least three times. The results were expressed as mean±standard error (SE).
The coefficient of drug interaction (CDI) was calculated to analyze the effects of rhAFP and Ptx combinations. CDI was calculated by the equation: CDI=SRAFP/drug[…]/SRAFP×SRdrug, where SRAFP/drug is the average survival rate of combination group, and SRAFP or SRdrug are the average survival rates of the single agent groups. According to our evaluation, CDI values <1, =1 or >1 indicate that the combinations are synergistic, additive or antagonistic respectively.
The values of Zn-rhAFP/Ptx or rhAFP/Ptx complex concentration, which inhibited the cell viability by 50% (IC50) when compared to untreated control, were calculated according to the Hill's equation (sigmoid model of concentration-response curve) from the curves of dependence of the relative percentage of viable cells from AFP concentration expressed as mean values from three independent experiments±SD.
In order to confirm the hypothesis that the combination of Zn-rhAFP and various low water-soluble chemotherapeutic agents would reveal increased anti-tumor efficacy, different cytotoxic compounds were tested in combination with Zn-rhAFP for their cell-killing effect in MCF-7 cells in vitro. […]

Molecule | IC50 [µM]
B1 | 2.5
B2 | 3
B3 | 3.5

same assay, conditions: Example 6, MCF-7, 48 h, protein without Ptx, read-out: cytostatic activity (IC50) standalone against MCF-7 cells

Molecule | IC50 [µM]
B1 | 5.2
B3 | 6.1

same assay, conditions: MCF7 + Zn-rhAFP 1.4 μM (Zn:rhAFP 4:1) + drug, 48 h

Molecule | Coefficient for drug interaction (CDI)
N.N.[Cl][Pt][Cl] [Cisplatin, cisplatin] | 0.93
Oc1ccc(C=Cc2cc(O)cc(O)c2)cc1 [Resveratrol, resveratrol] | 0.72
O=c1c(-c2ccc(O)cc2)coc2cc(O)cc(O)c12 [Genistein, genistein] | 0.82
COc1cc(/C=C/C(=O)CC(=O)/C=C/c2ccc(O)c(OC)c2)ccc1O [Curcumin, curcumin] | 0.88
COc1cccc2c1C(=O)c1c(O)c3c(c(O)c1C2=O)C[C@@](O)(C(=O)CO)C[C@@H]3O[C@H]1C[C@H](N)[C@H](O)[C@H](C)O1 [Doxorubicin, doxorubicin] | 0.66
CC(C)=CCC/C(C)=C/C=C/C(C)=C/C=C/C(C)=C/C=C/C=C(C)/C=C/C=C(C)/C=C/C=C(\C)CCC=C(C)C [Lycopene, lycopene] | 0.71
COc1cc([C@@H]2c3cc4c(cc3[C@@H](O[C@@H]3O[C@@H]5CO[C@@H](C)O[C@H]5[C@H](O)[C@H]3O)[C@H]3COC(=O)[C@H]23)OCO4)cc(OC)c1O [Etoposide, etoposide] | 0.86

system: normal CBA mice splenocytes; assay: Unspecific toxicity against normal splenocytes, trypan blue staining; conditions: 48 h, standalone protein
Method: Zn-rhAFP was prepared in a molecular ratio Zn:rhAFP=4:1. Viable cells were visualized by trypan blue staining. The data are expressed as percentage of viable cells in experimental cell cultures relative to untreated control. Mean of three independent experiments is shown.
Viable cells were visualized by trypan blue staining.

Molecule | dose-dependent stimulation of growth of the normal splenocytes
B1 | 40 % of control
B3 | 40 % of control

system: not listed separately; assay: Adiabatic scanning microcalorimetry of heat denaturation; assay type: physicochemical; conditions: protein 2.0 mg/ml in PBS pH 7.4

Molecule | ΔT1/2 (half width of the denaturation transition peak) [°C]
B1 | 5.9
B2 | 5.8
B3 | 7.0

same assay, conditions: protein 2.0 mg/ml in PBS pH 7.4; Zn/rhAFP 4/1, Ptx/rhAFP 1/1, Cur/rhAFP 1:1; error about ±6%

Molecule | ΔH (denaturation enthalpy) [kcal/mol]
B1 | 171
B2 | 189
B3 | 166

same assay, conditions: protein 2.0 mg/ml in PBS pH 7.4; error ±0.5° C.

Molecule | Tmax (denaturation transition temperature) [°C]
B1 | 74.3
B2 | 80.2
B3 | 71.9

system: NF-κB p65; assay: Immunofluorescence of activated NF-κB p65 nuclear translocation in MCF-7 cells; assay type: cell-based, human; conditions: MCF-7, 2 h treatment
Method: The cells were incubated with paclitaxel (10 μM) with addition of Zn-rhAFP (3.0 μM) and/or curcumin (3.0 μM) for 2 h and then assessed for localization of p65 by immunocytochemistry. Activated […] (p65) was detected by treatment of the cells with phospho […] p65 rabbit polyclonal antibody (Cell signaling technologies, USA) followed by secondary goat anti-rabbit Ab-Alexa594 red (Molecular Probes, USA). Cells were visualized at magnification ×400 by fluorescent microscope Axioplan; Zeiss (Germany) equipped with corresponding color filter kits.
The relative amount of p65 in the cytosol and nucleus of the cells was assessed by ImageJ software and was taken as 100% in the control (cytosol+nucleus). Total amount of activated p65 in control untreated cells was taken as 100%. The experimental data are represented as percentage of control±SD from three independent calculations in various observation fields.
MCF-7 cells were seeded on the microscopic plates Lab-Tek™ Chamber Slides (Thermo Fisher Scientific-Nunc, Germany) and cultivated at 37° C. at 5% CO2 atmosphere for 48 h to allow cell adaptation to reach 80% confluence. To test effects of chemotherapeutic preparations on the activation and translocation of NF-κB, cells were treated for 2 h with Ptx (10 nM), curcumin (30 μM); Zn-rhAFP (1.4 μM), or their combination Zn-rhAFP/Ptx/Cur, after which they were fixed with 100% ice-cold acetone. Control cells were incubated without additions and their NF-κB content was taken as 100%. Activated NF-κB was detected by treatment of the cells with phospho NF-κB p65 rabbit polyclonal antibody (Cell signaling technologies, USA) followed by the secondary goat anti-rabbit antibodies Ab-Alexa594 (Molecular Probes, USA). Nuclei were visualized by staining with DAPI (Molecular probes, USA). Cells were visualized at magnification ×400 by fluorescent microscope Axioplan (Zeiss, Germany) equipped with corresponding color filter kits. Distribution throughout the cell of the activated p65 was assessed by the ImageJ software and was taken as 100% in the control samples (cytosol+nucleus).

Molecule | effect on activated p65 (RelA) in the cell nucleus
COc1cc(/C=C/C(=O)CC(=O)/C=C/c2ccc(O)c(OC)c2)ccc1O [Curcumin, curcumin] | significant decrease of activated RelA in the cell nucleus
B1 | significant decrease of activated RelA in the cell nucleus
